T1: TP53 wild-type peptide on HLA-A*02:01 (human)
T1 peptide: HMTEVVRRC

T2: TP53 R175H peptide on HLA-A*02:01 (human)
T2 peptide: HMTEVVRHC


What was measured:
[1] = target: T1, TP53 wild-type peptide on HLA-A*02:01; experiment: cytokine release
[2] = target: T2, TP53 R175H peptide on HLA-A*02:01; experiment: multimer staining

| Binder | binding result [1] | binding result [2] |
| --- | --- | --- |
| TCR 3A (TCR, V domains shown) Valpha: GEDVEQSLFLSVREGDSSVINCTYTDSSSTYLYWYKQEPGAGLQLLTYIFSNMDMKQDQRLTVLLNKKDKHLSLRIADTQTGDSAIYFCAEISANQAGTALIFGKGTTLSVSS Vbeta: DTGVSQNPRHKITKRGQNVTFRCDPISEHNRLYWYRQTLGQGPEFLTYFQNEAQLEKSRLLSDRFSAERPKGSFSTLEIQRTEQGDSAMYLCASSPLDSYQETQYFGPGTRLLVL | no recognition | recognises |
| TCR 1C (TCR, V domains shown) Valpha: DQQVKQNSPSLSVQEGRISILNCDYTNSMFDYFLWYKKYPAEGPTFLISISSIKDKNEDGRFTVFLNKSAKHLSLHIVPSQPGDSAVYFCAATVGLAGNMLTFGGGTRLMVKP Vbeta: DSGVTQTPKHLITATGQRVTLRCSPRSGDLSVYWYQQSLDQGLQFLIQYYNGEERAKGNILERFSAQQFPDLHSELNLSSLELGDSALYFCASSTPLSGSSTDTQYFGPGTRLTVL | no recognition | recognises |
| TCR 7D (TCR, V domains shown) Valpha: QKEVEQDPGPLSVPEGAIVSLNCTYSNSAFQYFMWYRQYSRKGPELLMYTYSSGNKEDGRFTAQVDKSSKYISLFIRDSQPSDSATYLCASSFSGYNKLIFGAGTRLAVHP Vbeta: DSGVTQTPKHLITATGQRVTLRCSPRSGDLSVYWYQQSLDQGLQFLIQYYNGEERAKGNILERFSAQQFPDLHSELNLSSLELGDSALYFCASSERLAGAIADTQYFGPGTRLTVL | no recognition | recognises |
| TCR 1D (TCR, V domains shown) Valpha: EDQVTQSPEALRLQEGESSSLNCSYTVSGLRGLFWYRQDPGKGPEFLFTLYSAGEEKEKERLKATLTKKESFLHITAPKPEDSATYLCAVHSNYQLIWGAGTKLIIKP Vbeta: DSGVTQTPKHLITATGQRVTLRCSPRSGDLSVYWYQQSLDQGLQFLIHYYNGEERAKGNILERFSAQQFPDLHSELNLSSLELGDSALYFCASSTPLRTRGTDTQYFGPGTRLTVL | no recognition | recognises |
| TCR 7A (TCR, V domains shown) Valpha: AQKVTQAQTEISVVEKEDVTLDCVYETRDTTYYLFWYKQPPSGELVFLIRRNSFDEQNEISGRYSWNFQKSTSSFNFTITASQVVDSAVYFCALRNSGNTPLVFGKGTRLSVIA Vbeta: DSGVTQTPKHLITATGQRVTLRCSPRSGDLSVYWYQQSLDQGLQFLIQYYNGEERAKGNILERFSAQQFPDLHSELNLSSLELGDSALYFCASSVDWVQETQYFGPGTRLLVL | no recognition | recognises |
| TCR 3B (TCR, V domains shown) Valpha: AQKITQTQPGMFVQEKEAVTLDCTYDTSDQSYGLFWYKQPSSGEMIFLIYQGSYDEQNATEGRYSLNFQKARKSANLVISASQLGDSAMYFCAMREGRGRRALTFGSGTRLQVQP Vbeta: ETGVTQTPRHLVMGMTNKKSLKCEQHLGHNAMYWYKQSAKKPLELMFVYSLEERVENNSVPSRFSPECPNSSHLFLHLHTLQPEDSALYLCASSQDTAWDSGGETDTQYFGPGTRLTVL | no recognition | recognises |
| TCR 7B (TCR, V domains shown) Valpha: DAKTTQPTSMDCAEGRAANLPCNHSTISGNEYVYWYRQIHSQGPQYIIHGLKNNETNEMASLIITEDRKSSTLILPHATLRDTAVYYCIVPRGFSNTGKLIFGQGTTLQVKP Vbeta: GAVVSQHPSRVICKSGTSVKIECRSLDFQATTMFWYRQFPKQSLMLMATSNEGSKATYEQGVEKDKFLINHASLTLSTLTVTSAHPEDSSFYICSASESLALASEQYFGPGTRLTVT | no recognition | recognises |
| TCR 3C (TCR, V domains shown) Valpha: GEDVEQSLFLSVREGDSSVINCTYTDSSSTYLYWYKQEPGAGLQLLTYIFSNMDMKQDQRLTVLLNKKDKHLSLRIADTQTGDSAIYFCAEGYGGKLIFGQGTELSVKP Vbeta: GAGVSQTPSNKVTEKGKYVELRCDPISGHTALYWYRQSLGQGPEFLIYFQGTGAADDSGLPNDRFFAVRPEGSVSTLKIQRTERGDSAVYLCASSSKTGVVGEQFFGPGTRLTVL | no recognition | recognises |

The remaining lines, values ahead:

| binding result [1] | binding result [2] | Binder |
| --- | --- | --- |
| no recognition | recognises | TCR 1B (TCR, V domains shown) Valpha: AQKITQTQPGMFVQEKEAVTLDCTYDTSDPSYGLFWYKQPSSGEMIFLIYQGSYDQQNATEGRYSLNFQKARKSANLVISASQLGDSAMYFCAMREGFSGGYNKLIFGAGTRLAVHP Vbeta: DAGVTQSPTHLIKTRGQQVTLRCSPISGHKSVSWYQQVLGQGPQFIFQYYEKEERGRGNFPDRFSARQFPNYSSELNVNALLLGDSALYLCASSDDTGTTKSSGANVLTFGAGSRLTVL |
| no recognition | recognises | TCR 8A (TCR, V domains shown) Valpha: AQSVAQPEDQVNVAEGNPLTVKCTYSVSGNPYLFWYVQYPNRGLQFLLKYITGDNLVKGSYGFEAEFNKSQTSFHLKKPSALVSDSALYFCAVRAPGNTPLVFGKGTRLSVIA Vbeta: DTAVSQTPKYLVTQMGNDKSIKCEQNLGHDTMYWYKQDSKKFLKIMFSYNNKELIINETVPNRFSPKSPDKAHLNLHINSLELGDSAVYFCASSQDLGFDEKLFFGSGTQLSVL |
| no recognition | recognises | TCR 1A (TCR, V domains shown) Valpha: SQQGEEDPQALSIQEGENATMNCSYKTSINNLQWYRQNSGRGLVHLILIRSNEREKHSGRLRVTLDTSKKSSSLLITASRAADTASYFCATGSNYGGSQGNLIFGKGTKLSVKP Vbeta: EAGVAQSPRYKIIEKRQSVAFWCNPISGHATLYWYQQILGQGPKLLIQFQNNGVVDDSQLPKDRFSAERLKGVDSTLKIQPAKLEDSAVYLCASSLDYGSSYEQYFGPGTRLTVT |
| no recognition | recognises | TCR 4A (TCR, V domains shown) Valpha: AQTVTQSQPEMSVQEAETVTLSCTYDTSESNYYLFWYKQPPSRQMILVIRQEAYKQQNATENRFSVNFQKAAKSFSLKISDSQLGDTAMYFCAFMKWQGGSEKLVFGKGTKLTVNP Vbeta: DTAVSQTPKYLVTQMGNDKSIKCEQNLGHDTMYWYKQDSKKFLKIMFSYNNKELIINETVPNRFSPKSPDKAHLNLHINSLELGDSAVYFCASSQALAGEVDTQYFGPGTRLTVL |
